From patent US20230365659A1 (EPSILON MOLECULAR ENGINEERING, published 2023) come the findings set out here.

Residue numbers refer to the chain shown, from its start. Names and notes keep the numbering of the source. Read-outs that look alike come from different tables or passages of the source.

In experiment [1] the target is Trimeric SARS-CoV-2 spike antigen full-length (Bio-Serv) (SARS-CoV-2, UniProt P0DTC2 14-1273). The experiment can be described thus: ELISA, VHH on nickel plate, spike in solution (0-500 ng/mL).
Experiment [2] concerns the target T1, SARS-CoV-2 (2019-nCoV) spike S1-Fc recombinant protein (Sino Biological, Inc.) (SARS-CoV-2, UniProt P0DTC2 16-685).
Experiment [3] concerns the target T1, SARS-CoV-2 (2019-nCoV) spike S1-Fc …. This is another data set of the same source.

B1: Bacillus subtilis-derived VHH-COVE3 (VHH)
VHH: AEVQLVESGGGFVQAGGSLRLSCRVSAPTFMTYTMAWFRQAPGNEREFVAALSKNFVTTSYADSVKGRFTISRDNAKNTVYLQMNSLKPEDTAVYYCNVAWSDYEYLEVWGQGTLVTVSSGGGSHHHHHH
On to B1, for which the “absorbance (450 nm)” value in experiment [1] was 0.97.

B2: Bacillus subtilis-derived VHH-COVE5 (VHH)
VHH: EVQLVESGGGLVQAGGSLRLSCTASDQIFDNYNMAWFRQSPGKEREFVAALSWGDSNTGYADSVKGRFTISRDNAKNTVYLQMNSLKPEDTAVYYCYAVTWLRGDYWGQGTQVTVSS
For the molecule B2, in experiment [1], the “absorbance (450 nm)” value is 0.97.

B3: Bacillus subtilis-derived VHH-COVE8 (VHH)
VHH: EVQLVESGGGLVQPGGSLTLSCAASGQTFSSYNMAWFRQSPGKEREFVATISWGGGSTGYADSVKGRFTISRDHAKNTVYLQMKDLKPEDTGAYYCYLVGLFGIQASDYWGQGTQVTVSS
Consider B3, for which the “absorbance (450 nm)” value in experiment [1] is 0.97.

B4: Bacillus subtilis-derived VHH-COVE4 (VHH)
VHH: AEVQLVESGGDVVQPGGSLRLSCAASGFTFTTYAMTWVRQAPGEGLEAVSTISGADGSTYYADSVKGRFTISRDNANNTVYLQMNSLKPEDTAVYYCAATPWYSASHTYWGQGTQVTVSSGGGSHHHHHH
For the molecule B4, in experiment [2], the Kd worked out at 0.997 nM, the koff was found to be 0.000114 s⁻¹ and the kon is 115000 M⁻¹ s⁻¹.

B5: VHH-COVE9-R108K (VHH)
VHH: AEVQLVESGGGLVQPGGSLRLSCAASGTIFSTNAMSWYRQAPGKQRELVAAITSGGNTNYADSVKGRFTISRDNAKNTVYLQMNSLKPEDTAVYYCNAPGVVTGSYDVKNYWGQGTQVTVSSGSHHHHHH
For the molecule B5, in experiment [3], the Kd came to 3.28 nM, the dissociation rate constant (koff) amounted to 0.000437 s⁻¹ and the kon was 133000 M⁻¹ s⁻¹.

B6: VHH-COVE9-Y110S (VHH)
VHH: B5 VHH with K109R, Y111S
With B6, in experiment [3], the Kd was determined as 4.74 nM, the koff was found to be 0.000683 s⁻¹ and the kon turned out to be 144000 M⁻¹ s⁻¹.

B7: VHH-COVE9-N109D (VHH)
VHH: B5 VHH with K109R, N110D
With B7, in experiment [3], the Kd amounted to 8.38 nM, the koff was 0.00106 s⁻¹ and the kon stood at 126000 M⁻¹ s⁻¹.

B8: Bacillus subtilis-derived VHH-COVE7 (VHH)
VHH: EVQLVESGGGLVQAGDSLRLSCTASGRTFSSCAMGWFRQAPGKEREFVAAISRGGGSTSYADSVKGRFTISKDRARNTAYLEMNSLKPEDTAIYYCYAVFPSGGDYWGQGTQVTVSS
As for B8, in experiment [1], the “absorbance (450 nm)” value was determined as 0.97.

B9: Bacillus subtilis-derived VHH-COVE9 (VHH)
VHH: EVQLVESGGGLVQPGGSLRLSCAASGTIFSTNAMSWYRQAPGKQRELVAAITSGGNTNYADSVKGRFTISRDNAKNTVYLQMNSLKPEDTAVYYCNAPGVVTGSYDVRNYWGQGTQVTVSS
Turning to B9, the “absorbance (450 nm)” value in experiment [1] worked out at 0.97.

B10: Bacillus subtilis-derived VHH-COVE1 (VHH)
VHH: AEVQLVESGGGLVQPGGSLRLSCAASGFAFSSYPMYWVRQAPGKGLEWISFIDGEGTSTSYADSVKGRFTISRDNAKNTVYLQMNSLKPEDTAVYYCNALLRRYNYGFTFDNYWGQGTQVTVSSGGGSHHHHHH
In the case of B10, in experiment [2], the Kd was found to be 3.63 nM, the koff was found to be 0.00028 s⁻¹ and the on-rate (kon) stood at 77000 M⁻¹ s⁻¹.

B11: Bacillus subtilis-derived VHH-COVE2 (VHH)
VHH: AEVQLVESGGGLVQAGDSLRLSCAATRRTSSTYAMGWFRQAPGKGLEWVAAISWDGGRTYYAESVKGRFTISRDNAKNTVYLQMNSLKPEDTAVYYCYSFGGSDFLMDYWGQGTQVTVSSGGGSHHHHHH
For B11, in experiment [1], the “absorbance (450 nm)” value is 0.97.
